Residue numbers refer to the chain shown, from its start.
How the values were obtained:
[1] = tested on: T1, dCas12j-8 E258R+D313R+D495R E258R;D313R;D495R;D369A;E567A;D658A (bacteriophage (metagenome)); conditions: HEK293T cells; panel 1e (compare within a panel only); scale: mean GFP / mean GFP of wild type, printed, no background subtraction
T1 sequence: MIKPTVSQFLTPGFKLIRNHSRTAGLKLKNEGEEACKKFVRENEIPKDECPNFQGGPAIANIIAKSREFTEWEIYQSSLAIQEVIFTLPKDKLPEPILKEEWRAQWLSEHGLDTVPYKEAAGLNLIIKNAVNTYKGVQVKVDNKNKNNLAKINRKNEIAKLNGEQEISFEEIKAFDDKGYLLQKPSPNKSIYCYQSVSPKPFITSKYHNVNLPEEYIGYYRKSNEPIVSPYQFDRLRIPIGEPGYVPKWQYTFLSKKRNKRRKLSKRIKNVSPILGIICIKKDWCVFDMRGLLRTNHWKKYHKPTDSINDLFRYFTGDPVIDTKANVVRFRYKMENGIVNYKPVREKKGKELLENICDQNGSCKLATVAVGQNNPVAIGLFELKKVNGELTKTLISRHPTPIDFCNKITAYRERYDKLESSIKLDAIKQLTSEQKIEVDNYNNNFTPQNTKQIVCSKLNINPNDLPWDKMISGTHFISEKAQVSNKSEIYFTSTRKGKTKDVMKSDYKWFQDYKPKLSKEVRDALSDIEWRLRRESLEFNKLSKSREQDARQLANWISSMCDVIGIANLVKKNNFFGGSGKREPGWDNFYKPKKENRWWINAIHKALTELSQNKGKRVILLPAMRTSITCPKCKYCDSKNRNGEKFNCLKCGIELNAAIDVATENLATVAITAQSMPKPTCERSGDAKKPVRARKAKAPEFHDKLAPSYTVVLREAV

[2] = tested on: T2, dCas12j-8 WT D369A;E567A;D658A (bacteriophage (metagenome)); conditions: HEK293T cells; panel 1c (compare within a panel only); scale: mean GFP / mean GFP of wild type, printed, no background subtraction
T2 sequence: T1 sequence with R258E, R313D, R495D

[3] = tested on: T3, dCas12j-8 D527R D527R;D369A;E567A;D658A (bacteriophage (metagenome)); conditions: HEK293T cells; panel 1c (compare within a panel only); scale: mean GFP / mean GFP of wild type, printed, no background subtraction
T3 sequence: T1 sequence with R258E, R313D, R495D, D527R

[4] = tested on: T4, dCas12j-8 E258R+D313R+D495R+D527R+E547R E258R;D313R;D495R;D527R;E547R;D369A;E567A;D658A (bacteriophage (metagenome)); conditions: HEK293T cells; panel 1e (compare within a panel only); scale: mean GFP / mean GFP of wild type, printed, no background subtraction
T4 sequence: T1 sequence with D527R, E547R

Sequence: CUUUCAAGACUAAUAGAUUGCUCCUUACGAGGAGACACUCCCUAUCAGUGAUAGAG / TTNACTCCCTATCAGTGATAGAG / CTCTATCACTGATAGGGAGTNAA [TetO]
- binding signal [1]: 4.66
- binding signal [2]: 1
- binding signal [3]: 1.56
- binding signal [4]: 5.89
